# Reference: patent US20220356230A1
# Tests used:
# Assay in all cases: Luminex bead assay, antibody supernatant on modified RBD.mmH microspheres
# [1] = biological target: MOD15 - SARS-CoV-2 Spike Protein (RBD)(R319-F541).mmH (SARS-CoV-2)
# [2] = biological target: MOD9 - SARS-CoV-2 Spike Protein (RBD)(R319-F541).mmH (SARS-CoV-2)
# [3] = biological target: MOD10 - SARS-CoV-2 Spike Protein (RBD)(R319-F541).mmH (SARS-CoV-2)
# [4] = biological target: MOD12 - SARS-CoV-2 Spike Protein (RBD)(R319-F541).mmH (SARS-CoV-2)
# [5] = biological target: MOD13 - SARS-CoV-2 Spike Protein (RBD)(R319-F541).mmH (SARS-CoV-2)
# [6] = biological target: MOD11 - SARS-CoV-2 Spike Protein (RBD)(R319-F541).mmH (SARS-CoV-2)
# [7] = biological target: MOD14 - SARS-CoV-2 Spike Protein (RBD)(R319-F541).mmH (SARS-CoV-2)
# [8] = biological target: MOD8 - SARS-CoV-2 Spike Protein (RBD)(R319-F541).mmH (SARS-CoV-2)
substance,measurement,setting,value
mAb10936 (antibody),Binding signal (MFI),[1],21700 MFI
same,Binding signal (MFI),[2],29100 MFI
same,Binding signal (MFI),[3],28800 MFI
same,Binding signal (MFI),[4],31700 MFI
same,Binding signal (MFI),[5],29200 MFI
same,Binding signal (MFI),[6],30800 MFI
same,Binding signal (MFI),[7],28500 MFI
same,Binding signal (MFI),[8],2920 MFI
